Experimental findings from publication PMC11039992 are described below.

The labels stand for the following.
B1: MAC-RBM41-WT [human] / DEAH-box RNA helicase DHX8 [human (endogenous in Flp-In T-REx 293)] (parent)
chain 1: MKRVNSCVKSDEHVLEELETEGERQLKSLLQHQLDTSVSIEECMSKKESFAPGTMYKPFGKEAAGTMTLSQFQTLHEKDQETASLRELGLNETEILIWKSHVSGEKKTKLRATPEAIQNRLQDIEERISERQRILCLPQRFAKSKQLTRREMEIEKSLFQGADRHSFLKALYYQDEPQKKNKGDPMNNLESFYQEMIMKKRLEEFQLMRGEPFASHSLVSATSVGDSGTAESPSLLQDKGKQAAQGKGPSLHVANVIDFSPEQCWTGPKKLTQPIEFVPEDEIQRNRLSEEEIRKIPMFSSYNPGEPNKVLYLKNLSPRVTERDLVSLFARFQEKKGPPIQFRMMTGRMRGQAFITFPNKEIAWQALHLVNGYKLHGKILVIEFGKNKKQRSNLQATSLISCATGSTTEISGS
chain 2: MAVAVAMAGALIGSEPGPAEELAKLEYLSLVSKVCTELDNHLGINDKDLAEFVISLAEKNTTFDTFKASLVKNGAEFTDSLISNLLRLIQTMRPPAKPSTSKDPVVKPKTEKEKLKELFPVLCQPDNPSVRTMLDEDDVKVAVDVLKELEALMPSAAGQEKQRDAEHRDRTKKKKRSRSRDRNRDRDRDRERNRDRDHKRRHRSRSRSRSRTRERNKVKSRYRSRSRSQSPPKDRKDRDKYGERNLDRWRDKHVDRPPPEEPTIGDIYNGKVTSIMQFGCFVQLEGLRKRWEGLVHISELRREGRVANVADVVSKGQRVKVKVLSFTGTKTSLSMKDVDQETGEDLNPNRRRNLVGETNEETSMRNPDRPTHLSLVSAPEVEDDSLERKRLTRISDPEKWEIKQMIAANVLSKEEFPDFDEETGILPKVDDEEDEDLEIELVEEEPPFLRGHTKQSMDMSPIKIVKNPDGSLSQAAMMQSALAKERRELKQAQREAEMDSIPMGLNKHWVDPLPDAEGRQIAANMRGIGMMPNDIPEWKKHAFGGNKASYGKKTQMSILEQRESLPIYKLKEQLVQAVHDNQILIVIGETGSGKTTQITQYLAEAGYTSRGKIGCTQPRRVAAMSVAKRVSEEFGCCLGQEVGYTIRFEDCTSPETVIKYMTDGMLLRECLIDPDLTQYAIIMLDEAHERTIHTDVLFGLLKKTVQKRQDMKLIVTSATLDAVKFSQYFYEAPIFTIPGRTYPVEILYTKEPETDYLDASLITVMQIHLTEPPGDILVFLTGQEEIDTACEILYERMKSLGPDVPELIILPVYSALPSEMQTRIFDPAPPGSRKVVIATNIAETSLTIDGIYYVVDPGFVKQKVYNSKTGIDQLVVTPISQAQAKQRAGRAGRTGPGKCYRLYTERAYRDEMLTTNVPEIQRTNLASTVLSLKAMGINDLLSFDFMDAPPMETLITAMEQLYTLGALDDEGLLTRLGRRMAEFPLEPMLCKMLIMSVHLGCSEEMLTIVSMLSVQNVFYRPKDKQALADQKKAKFHQTEGDHLTLLAVYNSWKNNKFSNPWCYENFIQARSLRRAQDIRKQMLGIMDRHKLDVVSCGKSTVRVQKAICSGFFRNAAKKDPQEGYRTLIDQQVVYIHPSSALFNRQPEWVVYHELVLTTKEYMREVTTIDPRWLVEFAPAFFKVSDPTKLSKQKKQQRLEPLYNRYEEPNAWRISRAFRRR

In this assay the parent is B1. As to the kind of experiment: BioID proximity labeling (mass spectrometry spectral counts). The settings on record: with DEAH-box RNA helicase DHX8 [human (endogenous in Flp-In T-REx 293)]; MAC-tagged protein expression induced with tetracycline in the presence of biotin for 24 h; three independent replicates; parent: 23; read off a plot.
Consider chain 1 Q352A, for which the response (spectral count) came out at 23.

With chain 1 F354A, the response (spectral count) worked out at 19.

As for chain 1 Y312A F354A, the response (spectral count) is 23.

Consider chain 1 Y312A, for which the response (spectral count) was 19.
